Measurements taken from US12383631 (BRIGHT PEAK THERAPEUTICS, dated 2025).

T1: IL-18 receptor (IL-18Rα/IL-18Rβ) on cells (HEK-Blue IL18R reporter cells, NK-92, KG-1) (human, UniProt Q13478 19-541; O95256 20-599)
T1 sequence (looked up) 1: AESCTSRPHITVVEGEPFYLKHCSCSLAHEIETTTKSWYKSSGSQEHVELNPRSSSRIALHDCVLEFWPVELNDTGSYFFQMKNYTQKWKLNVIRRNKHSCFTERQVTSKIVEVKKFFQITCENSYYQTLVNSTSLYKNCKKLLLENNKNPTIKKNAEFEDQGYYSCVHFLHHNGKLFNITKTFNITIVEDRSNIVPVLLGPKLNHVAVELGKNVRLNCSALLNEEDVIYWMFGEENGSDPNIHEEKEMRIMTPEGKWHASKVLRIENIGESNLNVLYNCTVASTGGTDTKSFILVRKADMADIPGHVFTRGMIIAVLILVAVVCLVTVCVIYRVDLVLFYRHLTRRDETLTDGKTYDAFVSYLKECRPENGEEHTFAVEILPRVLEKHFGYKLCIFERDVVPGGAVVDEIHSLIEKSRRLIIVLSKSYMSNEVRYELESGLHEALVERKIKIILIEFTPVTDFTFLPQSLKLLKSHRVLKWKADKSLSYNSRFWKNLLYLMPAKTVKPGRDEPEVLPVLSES
T1 sequence (looked up) 2: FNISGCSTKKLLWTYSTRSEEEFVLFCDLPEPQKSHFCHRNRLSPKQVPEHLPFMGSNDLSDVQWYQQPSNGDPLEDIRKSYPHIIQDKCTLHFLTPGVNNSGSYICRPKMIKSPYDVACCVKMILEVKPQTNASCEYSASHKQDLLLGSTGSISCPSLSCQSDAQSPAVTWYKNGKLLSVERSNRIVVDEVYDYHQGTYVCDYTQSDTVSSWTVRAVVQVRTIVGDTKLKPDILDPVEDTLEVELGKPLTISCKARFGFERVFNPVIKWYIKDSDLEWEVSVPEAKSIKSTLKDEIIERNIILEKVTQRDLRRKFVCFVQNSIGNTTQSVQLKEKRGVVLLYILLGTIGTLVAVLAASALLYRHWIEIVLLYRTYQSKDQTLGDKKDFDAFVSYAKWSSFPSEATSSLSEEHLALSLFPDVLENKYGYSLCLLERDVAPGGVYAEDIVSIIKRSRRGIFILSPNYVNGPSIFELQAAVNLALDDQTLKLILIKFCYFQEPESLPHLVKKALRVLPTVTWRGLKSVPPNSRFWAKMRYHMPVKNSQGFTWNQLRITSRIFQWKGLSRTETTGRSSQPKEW

B1: IL-18 polypeptide of SEQ ID NO: 5 (E6K, V11I, C38A, K53A, T63A, C68A, C76A, M86C, C127A) (ligand)
chain: YFGKLKSKLSIIRNLNDQVLFIDQGNRPLFEDMTDSDARDNAPRTIFIISMYADSQPRGMAVAISVKAEKISTLSAENKIISFKECNPPDNIKDTKSDIIFFQRSVPGHDNKMQFESSSYEGYFLAAEKERDLFKLILKKEDELGDRSIMFTVQNED
B2: IL-18 polypeptide of SEQ ID NO: 6 (E6K, V11I, C38A, K53A, T63A, C68A, C76A, D98C, C127A) (ligand)
chain: YFGKLKSKLSIIRNLNDQVLFIDQGNRPLFEDMTDSDARDNAPRTIFIISMYADSQPRGMAVAISVKAEKISTLSAENKIISFKEMNPPDNIKDTKSCIIFFQRSVPGHDNKMQFESSSYEGYFLAAEKERDLFKLILKKEDELGDRSIMFTVQNED
B3: IL-18 polypeptide of SEQ ID NO: 43 (E06K, K53A, S55A, Y01G) (ligand)
chain: GFGKLKSKLSVIRNLNDQVLFIDQGNRPLFEDMTDSDCRDNAPRTIFIISMYADAQPRGMAVTISVKCEKISTLSCENKIISFKEMNPPDNIKDTKSDIIFFQRSVPGHDNKMQFESSSYEGYFLACEKERDLFKLILKKEDELGDRSIMFTVQNED
B4: IL-18 polypeptide of SEQ ID NO: 9 (E6K, C38A, K53A, C68A, D98C) (ligand)
chain: YFGKLKSKLSVIRNLNDQVLFIDQGNRPLFEDMTDSDARDNAPRTIFIISMYADSQPRGMAVTISVKAEKISTLSCENKIISFKEMNPPDNIKDTKSCIIFFQRSVPGHDNKMQFESSSYEGYFLACEKERDLFKLILKKEDELGDRSIMFTVQNED
B5: IL-18 polypeptide of SEQ ID NO: 4 (E6K, C38A, K53A, C68A, M86C) (ligand)
chain: YFGKLKSKLSVIRNLNDQVLFIDQGNRPLFEDMTDSDARDNAPRTIFIISMYADSQPRGMAVTISVKAEKISTLSCENKIISFKECNPPDNIKDTKSDIIFFQRSVPGHDNKMQFESSSYEGYFLACEKERDLFKLILKKEDELGDRSIMFTVQNED
B6: IL-18 polypeptide of SEQ ID NO: 49 (E06K, K53A, S55A, C38S, C68S, C76S, C127S, K70C) (ligand)
chain: YFGKLKSKLSVIRNLNDQVLFIDQGNRPLFEDMTDSDSRDNAPRTIFIISMYADAQPRGMAVTISVKSECISTLSSENKIISFKEMNPPDNIKDTKSDIIFFQRSVPGHDNKMQFESSSYEGYFLASEKERDLFKLILKKEDELGDRSIMFTVQNED
B7: IL-18 polypeptide of SEQ ID NO: 45 (E06K, K53A, S55A, D54A) (ligand)
chain: YFGKLKSKLSVIRNLNDQVLFIDQGNRPLFEDMTDSDCRDNAPRTIFIISMYAAAQPRGMAVTISVKCEKISTLSCENKIISFKEMNPPDNIKDTKSDIIFFQRSVPGHDNKMQFESSSYEGYFLACEKERDLFKLILKKEDELGDRSIMFTVQNED
B8: IL-18 polypeptide of SEQ ID NO: 34 (E06K, K53A, S55A) (ligand)
chain: YFGKLKSKLSVIRNLNDQVLFIDQGNRPLFEDMTDSDCRDNAPRTIFIISMYADAQPRGMAVTISVKCEKISTLSCENKIISFKEMNPPDNIKDTKSDIIFFQRSVPGHDNKMQFESSSYEGYFLACEKERDLFKLILKKEDELGDRSIMFTVQNED
B9: IL-18 polypeptide of SEQ ID NO: 46 (E06K, K53A, S55A, M51G) (ligand)
chain: YFGKLKSKLSVIRNLNDQVLFIDQGNRPLFEDMTDSDCRDNAPRTIFIISGYADAQPRGMAVTISVKCEKISTLSCENKIISFKEMNPPDNIKDTKSDIIFFQRSVPGHDNKMQFESSSYEGYFLACEKERDLFKLILKKEDELGDRSIMFTVQNED
B10: IL-18 polypeptide of SEQ ID NO: 44 (E06K, K53A, S55A, F02A) (ligand)
chain: YAGKLKSKLSVIRNLNDQVLFIDQGNRPLFEDMTDSDCRDNAPRTIFIISMYADAQPRGMAVTISVKCEKISTLSCENKIISFKEMNPPDNIKDTKSDIIFFQRSVPGHDNKMQFESSSYEGYFLACEKERDLFKLILKKEDELGDRSIMFTVQNED
B11: IL-18 polypeptide of SEQ ID NO: 35 (Y01G, F02A, E06K, M51G, K53A, D54A, S55A, T63A) (ligand)
chain: GAGKLKSKLSVIRNLNDQVLFIDQGNRPLFEDMTDSDCRDNAPRTIFIISGYAAAQPRGMAVAISVKCEKISTLSCENKIISFKEMNPPDNIKDTKSDIIFFQRSVPGHDNKMQFESSSYEGYFLACEKERDLFKLILKKEDELGDRSIMFTVQNED
B12: IL-18 polypeptide C140 (SEQ ID NO: 72) (ligand)
chain: GGGGYFGKLKSKLSIIRNLNDQVLFIDQGNRPLFEDMTDSDARDNAPRTIFIISMYADSQPRGMAVAISVKCEKISTLSAENKIISFKEMNPPDNIKDTKSDIIFFQRSVPGHDNKMQFESSSYEGYFLAAEKERDLFKLILKKEDELGDRSIMFTVQNED
B13: IL-18 polypeptide C141 (SEQ ID NO: 71) (ligand)
chain: GYFGKLKSKLSIIRNLNDQVLFIDQGNRPLFEDMTDSDARDNAPRTIFIISMYADSQPRGMAVAISVKCEKISTLSAENKIISFKEMNPPDNIKDTKSDIIFFQRSVPGHDNKMQFESSSYEGYFLAAEKERDLFKLILKKEDELGDRSIMFTVQNED
B14: IL-18 polypeptide C192 (SEQ ID NO: 70) (ligand)
chain: GYFGKLKSKLSIIRNLNDQVLFIDQGNRPLFEDMTDSDARDNAPRTIFIISGYADSQPRGMAVAISVKCEKISTLSAENKIISFKEMNPPDNIKDTKSDIIFFQRSVPGHDNKMQFESSSYEGYFLAAEKERDLFKLILKKEDELGDRSIMFTVQNED
B15: IL-18 polypeptide C177 (ligand)
chain: YFGKLKSKLSIIRNLNDQVLFIDQGNRPLFEDMTDSDARDNAPRTIFIRSMYADSQPRGMAVAISVKCEKISTLSAENKIISFKEMNPPDNIKDTKSDIIFFQRSVPGHDNKMQFESSSYEGYFLAAEKERDLFKLILKKEDELGDRSIMFTVQNED
B16: IL-18 polypeptide C179 (ligand)
chain: YFGKLKSELSIIRNLNDQVLFIDQGNRPLFEDMTDSDARDNAPRTIFIISMYADSQPRGMAVAISVKCEKISTLSAENKIISFKEMNPPDNIKDTKSDIIFFRRSVPGHDNKMQFESSSYEGYFLAAEKERDLFKLILKKEDELGDRSIMFTVQNED
B17: IL-18 polypeptide C181 (ligand)
chain: YFGKLKSKLSIIRNLNDQVLFIDQGNRPLFEDMTDSDARDNAPRTIFIISMYADSQPRGMAVAISVKCEKISTLSAENKIISFKEMNPPDNIKDTKSDIIFFQRSVPGHDNKMQFESSSYEGYFLAAEKERDLFKLILKKEDELGDRSIMFTEQNED
B18: IL-18 polypeptide C178 (ligand)
chain: YFGKLKSKLSIIRNLNDQVLFIDQGNRPLFEDMTDSDARDNAPRTIFIISMYADSQPRGMAVAISVKCEKISTLSAENKIISFKEMNPPDNIKDTKSDIIFFRRSVPGHDNKMQFESSSYEGYFLAAEKERDLFKLILKKEDELGDRSIMFTVQNED
B19: IL-18 polypeptide C183 (SEQ ID NO: 69) (ligand)
chain: YFGKLKSKLSIIRNLNDQVLFIDQGNRPLFEDMTDSDARDNAPRTIFIISGYADSQPRGMAVAISVKCEKISTLSAENKIISFKEMNPPDNIKDTKSDIIFFQRSVPGHDNKMQFESSSYEGYFLAAEKERDLFKLILKKEDELGDRSIMFTVQNED
B20: IL-18 polypeptide C182 (ligand)
chain: YFGKLKSKLSIIRNLNDQVLFIDQGNRPLFEDMTDSDARDNAPRTIFIISMYADSQPRGMAVAISVKCEKISTLSAENKIISFKEMNPPDNIKDTKSDIIFFQRSVPGHDNKMQFESSSYEGYFLAAEKERDLFKLILKKEDELGDRSIMFTYQNED

Each binder was assayed against T1, IL-18 receptor (IL-18Rα/IL-18Rβ) on … (assay: cell-based or functional assay).
B1 was tested, and the “EC50, IFNγ stimulation, NK92 cells” value was 0.075 nM. In the case of B2, the “EC50, IFNγ stimulation, NK92 cells” value is reported as 1.37 nM. B3 was tested, and the “EC50, IFNγ stimulation, NK92 cells” value was 6.12 nM. For B4, the “EC50, IFNγ stimulation, NK92 cells” value was 0.069 nM. In the case of B5, the “EC50, IFNγ stimulation, NK92 cells” value is reported as 0.022 nM. B6 was tested, and the “EC50, IFNγ stimulation, NK92 cells” value was 58.5 nM. For B7, the “EC50, IFNγ stimulation, NK92 cells” value was 30 nM. For B8, the “EC50, IFNγ stimulation, NK92 cells” value was 0.824 nM. In the case of B9, the “EC50, IFNγ stimulation, NK92 cells” value is reported as 7.4 nM. For B10, the “EC50, IFNγ stimulation, NK92 cells” value was > 1000 nM. B11 was tested, and the “EC50, IFNγ stimulation, NK92 cells” value was > 55 nM.

Target: T1, IL-18 receptor (IL-18Rα/IL-18Rβ) on …
Test: cell-based or functional assay
Remark: another data set of the same source
B12 was tested, and the “EC50, HEK-Blue IL18R reporter cells” value was 2.5 pM. In the case of B13, the “EC50, HEK-Blue IL18R reporter cells” value is reported as 1.68 pM. In the case of B14, the “EC50, HEK-Blue IL18R reporter cells” value is reported as 14 pM. B15 was tested, and the “EC50, HEK-Blue IL18R reporter cells” value was 0.04 pM. In the case of B16, the “EC50, HEK-Blue IL18R reporter cells” value is reported as 0.4 pM. For B17, the “EC50, HEK-Blue IL18R reporter cells” value was 0.1 pM. With B8 the “EC50, HEK-Blue IL18R reporter cells” value was 272 pM. B18 was tested, and the “EC50, HEK-Blue IL18R reporter cells” value was 0.26 pM. In the case of B19, the “EC50, HEK-Blue IL18R reporter cells” value is reported as 0.1 pM. In the case of B20, the “EC50, HEK-Blue IL18R reporter cells” value is reported as 0.08 pM.
